The series deals with the molecule itself. Nature of the series: SEC-MALS.

A word on the stoichiometry N: it is the number of molecules, sites or subunits per partner or assembly.

B1: E. coli periplasmic chaperone HdeA, wild type (natural protein)
chain: ADAQKAADNKKPVNSWTCEDFLAVDESFQPTAVGFAEALNNKDKPEDAVLDVQGIATVTPAIVQACTQDKQANFKDKVKGEWDKIKKDM
modifications: native disulfide between Cys18 and Cys66
Turning to B1, the “stoichiometry N” value is 2.

The record behind these values is PMC9915745 (ArXiv, 2023).
